Where two headings read alike, the source gives them in different places.
B1: recombinant Escherichia coli Lon protease (aa 1-778) (enzyme)
chain: MNPERSERIEIPVLPLRDVVVYPHMVIPLFVGREKSIRCLEAAMDHDKKIMLVAQKEASTDEPGVNDLFTVGTVASILQMLKLPDGTVKVLVEGLQRARISALSDNGEHFSAKAEYLESPTIDEREQEVLVRTAISQFEGYIKLNKKIPPEVLTSLNSIDDPARLADTIAAHMPLKLADKQSVLEMSDVNERLEYLMAMMESEIDLLQVEKRIRNRVKKQMEKSQREYYLNEQMKAIQKELGEMDDAPDENEALKRKIDAAKMPKEAKEKAEAELQKLKMMSPMSAEATVVRGYIDWMVQVPWNARSKVKKDLRQAQEILDTDHYGLERVKDRILEYLAVQSRVNKIKGPILCLVGPPGVGKTSLGQSIAKATGRKYVRMALGGVRDEAEIRGHRRTYIGSMPGKLIQKMAKVGVKNPLFLLDEIDKMSSDMRGDPASALLEVLDPEQNVAFSDHYLEVDYDLSDVMFVATSNSMNIPAPLLDRMEVIRLSGYTEDEKLNIAKRHLLPKQIERNALKKGELTVDDSAIIGIIRYYTREAGVRGLEREISKLCRKAVKQLLLDKSLKHIEINGDNLHDYLGVQRFDYGRADNENRVGQVTGLAWTEVGGDLLTIETACVPGKGKLTYTGSLGEVMQESIQAALTVVRARAEKLGINPDFYEKRDIHVHVPEGATPKDGPSAGIAMCTALVSCLTGNPVRADVAMTGEITLRGQVLPIGGLKEKLLAAHRGGIKTVLIPFENKRDLEEIPDNVIADLDIHPVKRIEEVLTLALQNEPSGM
modifications: His-tag omitted. The paper does not print the limits of Origene TP762404. Limits follow the paper's modelled C-terminal part, c-MYC aa 356-439 in 439-aa numbering, shifted by +15 to the 454-aa entry (bHLH-leucine zipper to the C-terminus). The bought construct may start earlier.
B2: recombinant Escherichia coli Lon protease (aa 1-778) (enzyme)
chain: B1 chain
B3: Lon peptidase domain peptide (aa 581-778) (domain or fragment)
chain: VQRFDYGRADNENRVGQVTGLAWTEVGGDLLTIETACVPGKGKLTYTGSLGEVMQESIQAALTVVRARAEKLGINPDFYEKRDIHVHVPEGATPKDGPSAGIAMCTALVSCLTGNPVRADVAMTGEITLRGQVLPIGGLKEKLLAAHRGGIKTVLIPFENKRDLEEIPDNVIADLDIHPVKRIEEVLTLALQNEPSGM
B4: Lon AAA+ domain peptide (aa 241-584) (domain or fragment)
chain: LGEMDDAPDENEALKRKIDAAKMPKEAKEKAEAELQKLKMMSPMSAEATVVRGYIDWMVQVPWNARSKVKKDLRQAQEILDTDHYGLERVKDRILEYLAVQSRVNKIKGPILCLVGPPGVGKTSLGQSIAKATGRKYVRMALGGVRDEAEIRGHRRTYIGSMPGKLIQKMAKVGVKNPLFLLDEIDKMSSDMRGDPASALLEVLDPEQNVAFSDHYLEVDYDLSDVMFVATSNSMNIPAPLLDRMEVIRLSGYTEDEKLNIAKRHLLPKQIERNALKKGELTVDDSAIIGIIRYYTREAGVRGLEREISKLCRKAVKQLLLDKSLKHIEINGDNLHDYLGVQRF
B5: Lon N-terminal domain peptide (aa 1-245) (domain or fragment)
chain: MNPERSERIEIPVLPLRDVVVYPHMVIPLFVGREKSIRCLEAAMDHDKKIMLVAQKEASTDEPGVNDLFTVGTVASILQMLKLPDGTVKVLVEGLQRARISALSDNGEHFSAKAEYLESPTIDEREQEVLVRTAISQFEGYIKLNKKIPPEVLTSLNSIDDPARLADTIAAHMPLKLADKQSVLEMSDVNERLEYLMAMMESEIDLLQVEKRIRNRVKKQMEKSQREYYLNEQMKAIQKELGEMD
B6: Lon N-terminal domain peptide (aa 1-245) (domain or fragment)
chain: B5 chain
modifications: His-tag omitted. The paper does not print the limits of Origene TP762404. Limits follow the paper's modelled C-terminal part, c-MYC aa 356-439 in 439-aa numbering, shifted by +15 to the 454-aa entry (bHLH-leucine zipper to the C-terminus). The bought construct may start earlier.

What was measured:
[1] = molecular target: His-tagged C-terminal c-MYC (human); test: SPR
Chain of His-tagged C-terminal c-MYC (human) (chain, as listed by the source): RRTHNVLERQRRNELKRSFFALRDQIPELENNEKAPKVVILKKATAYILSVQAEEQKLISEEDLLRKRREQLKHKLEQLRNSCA

His-tagged MAX [2] = molecular target: T1, His-tagged MAX (human, UniProt P61244 1-160); test: SPR; repeat
T1 sequence (P61244 whole entry): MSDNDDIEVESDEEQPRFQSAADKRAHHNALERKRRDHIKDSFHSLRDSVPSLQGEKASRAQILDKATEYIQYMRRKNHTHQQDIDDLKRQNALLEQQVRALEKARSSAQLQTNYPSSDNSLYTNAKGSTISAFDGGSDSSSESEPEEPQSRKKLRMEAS

[3] = molecular target: T2, His-tagged full-length c-MYC (human, UniProt P01106-1 1-439); test: SPR
T2 sequence (P01106 16-454): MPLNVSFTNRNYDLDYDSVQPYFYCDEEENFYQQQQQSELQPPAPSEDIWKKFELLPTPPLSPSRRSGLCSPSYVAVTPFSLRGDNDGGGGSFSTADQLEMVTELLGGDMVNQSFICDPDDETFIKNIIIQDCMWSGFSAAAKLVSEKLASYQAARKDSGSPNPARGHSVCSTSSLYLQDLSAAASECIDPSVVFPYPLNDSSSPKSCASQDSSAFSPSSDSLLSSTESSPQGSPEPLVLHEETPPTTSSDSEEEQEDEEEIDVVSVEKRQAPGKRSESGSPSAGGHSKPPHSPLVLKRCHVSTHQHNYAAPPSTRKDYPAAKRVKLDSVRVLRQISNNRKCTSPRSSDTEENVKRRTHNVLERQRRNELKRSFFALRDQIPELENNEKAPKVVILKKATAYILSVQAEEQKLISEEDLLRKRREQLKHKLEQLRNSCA

[4] = molecular target: T3, His-tagged full-length N-MYC (human, UniProt P04198 1-464); test: SPR
T3 chain: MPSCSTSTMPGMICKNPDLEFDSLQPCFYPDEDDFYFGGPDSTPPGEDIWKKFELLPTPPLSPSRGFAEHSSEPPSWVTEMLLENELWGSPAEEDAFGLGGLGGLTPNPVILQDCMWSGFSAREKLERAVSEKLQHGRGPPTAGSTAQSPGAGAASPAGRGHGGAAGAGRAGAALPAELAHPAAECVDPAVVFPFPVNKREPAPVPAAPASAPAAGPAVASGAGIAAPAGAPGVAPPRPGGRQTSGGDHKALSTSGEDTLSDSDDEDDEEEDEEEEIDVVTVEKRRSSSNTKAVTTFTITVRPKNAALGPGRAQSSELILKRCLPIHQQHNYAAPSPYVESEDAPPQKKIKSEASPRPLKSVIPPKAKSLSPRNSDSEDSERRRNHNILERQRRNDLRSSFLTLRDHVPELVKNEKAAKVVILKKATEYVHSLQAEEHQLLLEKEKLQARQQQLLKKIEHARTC

His-tagged MAX [5] = molecular target: T1, His-tagged MAX; test: SPR
[6] = molecular target: T2, His-tagged full-length c-MYC; test: SPR; remark: listed apart in the source

Binder	Kd [1] [nM]	Kd (His-tagged MAX [2]) [nM]	Kd [3] [nM]	Kd [4] [nM]	Kd (His-tagged MAX [5]) [nM]	Kd [6] [nM]
B1	398					
B2		174	382	332	164	
B3						849
B4						534
B5		1690	462	402	294	
B6	495					
